Reference: the RNAGym collection of RNA variant scans (doi:10.7554/elife.80360)

B1: CPEB3 Ribozyme (parent)
chain: GGGGGCCACAGCAGAAGCGUUCACGUCGCGGCCCCUGUCAGAUUCUGGUGAAUCUGCGAAUUCUGCUGU

Variants of: B1
Test: self-cleavage, relative activity (ratio to wild type); higher = more cleavage; co-transcriptional
GGGGGCCACAGCAGACGCGUUCACGUCGCGGCCCCUGUAAGAUUCUGGUGAAUCUGCGAAUUCUGCUGU gave a self-cleavage of 0.108. GGGGGCCACAGCAGACGCGGUCACGUCGCGGCCCCUGUCAGAUUCUGGUGAAUCUGCGAAUUCUGCUGU gave a self-cleavage of 0.285. In the case of GGGGGCCACAGCAGACGCGUUCACGUCGCGGCCCGUGUCAGAUUCUGGUGAAUCUGCGAAUUCUGCUGU, the self-cleavage is reported as 0.118. In the case of GGGGGCCACAGCAGACGCGUUCACGUCGCGGCCCUUGUCAGAUUCUGGUGAAUCUGCGAAUUCUGCUGU, the self-cleavage is reported as 0.17. Work on GGGGGCCACAGCAGACGCGUUCACGUCGCGGCCCAUGUCAGAUUCUGGUGAAUCUGCGAAUUCUGCUGU yielded a self-cleavage of 0.071. With GGGGGCCACAGCAGACGCGUUCACGUCGCGGCCCCUGUCAGAUUCUGGGGAAUCUGCGAAUUCUGCUGU the self-cleavage was 0.319. With GGGGGCCACAGCAGACGCGUUCACGUCGCGGCCCCUGUCAGAUUCUGGCGAAUCUGCGAAUUCUGCUGU the self-cleavage was 0.377. GGGGGCCACAGCAGACGCGUUCACGUCGCGGCCCCUGUCAGAUUCUGGAGAAUCUGCGAAUUCUGCUGU showed a self-cleavage of 0.419. GGGGGCCACAGCAGACGCGUUCACGUCGCGGCCCCUGUCAGAUUCUGGUGAAUCUGCGAAUUCUACUGU showed a self-cleavage of 0.155. GGGGGCCACAGCAGACGCGUUCACGUCGCGGCCCCUGUCAGAUUCUGGUGAAUCUGCGAAUUCUUCUGU gave a self-cleavage of 0.13. Variant GGGGGCCACAGCAGACGCCUUCACGUCGCGGCCCCUGUCAGAUUCUGGUGAAUCUGCGAAUUCUGCUGU has a self-cleavage of 0.0843. For GGGGGCCACAGCAGACGCAUUCACGUCGCGGCCCCUGUCAGAUUCUGGUGAAUCUGCGAAUUCUGCUGU, the self-cleavage was 0.132. In the case of GGGGGCCACAGCAGACGCUUUCACGUCGCGGCCCCUGUCAGAUUCUGGUGAAUCUGCGAAUUCUGCUGU, the self-cleavage is reported as 0.137. GGGGGCCACAGCAGACGCGUUCACGUCGCGGCCCCUGUCAUAUUCUGGUGAAUCUGCGAAUUCUGCUGU showed a self-cleavage of 0.142. GGGGGCCACAGCAGACGCGUUCACGUCGCGGCCCCUGUCAAAUUCUGGUGAAUCUGCGAAUUCUGCUGU showed a self-cleavage of 0.129. In the case of GGGGGCCACAGCAGACGCGUUCACGUCGCGGCCCCUGUCAGAUUCUGGUGAAUAUGCGAAUUCUGCUGU, the self-cleavage is reported as 0.256. In the case of GGGGGCCACAGCAGACGCGUUCACGUCGCGGCCCCUGUCAGAUUCUGGUGAAUUUGCGAAUUCUGCUGU, the self-cleavage is reported as 0.313. Work on GGGGGCCACAGCAGACGCGUUCACGUCGCGGCCCCUGUCAGAUUCUGGUGAAUGUGCGAAUUCUGCUGU yielded a self-cleavage of 0.152. Variant GGGGGCCACAGCAGACGCGUUCACGUCGCGGCCCCUGUCAGAUCCUGGUGAAUCUGCGAAUUCUGCUGU has a self-cleavage of 0.178. With GGGGGCCACAGCAGACGCGUUCACGUCGCGGCCCCUGUCAGAUUCUAGUGAAUCUGCGAAUUCUGCUGU the self-cleavage was 0.303. For GGGGGCCACAGCAGACGCGUUCACGUCGCGGCCCCUGUCAGAUUCUCGUGAAUCUGCGAAUUCUGCUGU, the self-cleavage was 0.368. Variant GGGGGCCACAGCAGACGCGUUCACGUCGCGGCCCCUGUCAGAUUCAGGUGAAUCUGCGAAUUCUGCUGU has a self-cleavage of 0.51. With GGGGGCCACAGCAGACGCGUUCACAUCGCGGCCCCUGUCAGAUUCUGGUGAAUCUGCGAAUUCUGCUGU the self-cleavage was 0.139. In the case of GGGGGCCACAGCAGACGCGUUCACUUCGCGGCCCCUGUCAGAUUCUGGUGAAUCUGCGAAUUCUGCUGU, the self-cleavage is reported as 0.103. GGGGGCCACAGCAGACGCGUUCACGUCGCCGCCCCUGUCAGAUUCUGGUGAAUCUGCGAAUUCUGCUGU gave a self-cleavage of 0.191. Variant GGGGGCCACAGCAGACGCGUUCACGGCGCGGCCCCUGUCAGAUUCUGGUGAAUCUGCGAAUUCUGCUGU has a self-cleavage of 0.102. Work on GGGGGCCACAGCAGACGCGUUCACGACGCGGCCCCUGUCAGAUUCUGGUGAAUCUGCGAAUUCUGCUGU yielded a self-cleavage of 0.158. GGGGGCCACAGCAGACGCGUUCACGCCGCGGCCCCUGUCAGAUUCUGGUGAAUCUGCGAAUUCUGCUGU gave a self-cleavage of 0.264. Variant GGGGGCCACAGCAGACGCGUUCACGUCGCGGCCCCUGUCAGAUUCUGGUGAAUCUGCAAAUUCUGCUGU has a self-cleavage of 0.189. GGGGGCCACAGCAGACGCGUUCACGUCGCGGCCCCUGUCAGAUUCUGGUGAAUCUGCCAAUUCUGCUGU gave a self-cleavage of 0.28. With GGGGGCCACAGCAGACGCGUUCACGUCGCGGCCCCUGUCAGAUUCUGGUGAAUCUGCUAAUUCUGCUGU the self-cleavage was 0.494. With GGGGGCCACAGCAGACGCGUUCACGUCGCGGCCCCUGUCAGAUUCUGGUGAAUCUGCGAUUUCUGCUGU the self-cleavage was 0.103. For GGGGGCCACAGCAGACGCGUUCACGUCGCGGCCGCUGUCAGAUUCUGGUGAAUCUGCGAAUUCUGCUGU, the self-cleavage was 0.168. Work on GGGGGCCACAGCAGACGCGUUCACGUCGCGGCCUCUGUCAGAUUCUGGUGAAUCUGCGAAUUCUGCUGU yielded a self-cleavage of 0.353. With GGGGGCCACAGCAGACGCGUGCACGUCGCGGCCCCUGUCAGAUUCUGGUGAAUCUGCGAAUUCUGCUGU the self-cleavage was 0.0655. GGGGGCCACAGCAGACGCGUACACGUCGCGGCCCCUGUCAGAUUCUGGUGAAUCUGCGAAUUCUGCUGU gave a self-cleavage of 0.273. GGGGGCCACAGCAGACGCGUUCACGUCACGGCCCCUGUCAGAUUCUGGUGAAUCUGCGAAUUCUGCUGU showed a self-cleavage of 0.103. GGGGGCCACAGCAGACGCGUUCACGUCCCGGCCCCUGUCAGAUUCUGGUGAAUCUGCGAAUUCUGCUGU gave a self-cleavage of 0.133. For GGGGGCCACAGCAGACGCGUUCACGUCGCGGCCCCUGUCAGAUUCUGGUGAAUCUGUGAAUUCUGCUGU, the self-cleavage was 0.107. Work on GGGGGCCACAGCAGACGCGUUCACGUCGCGGCGCCUGUCAGAUUCUGGUGAAUCUGCGAAUUCUGCUGU yielded a self-cleavage of 0.0588. Variant GGGGGCCACAGCAGACGCGUUCACGUCGCGGCACCUGUCAGAUUCUGGUGAAUCUGCGAAUUCUGCUGU has a self-cleavage of 0.213. GGGGGCCACAGCAGACGCGUUCACGUCGCGGCCCCUGUCAGAUUCUGGUGAAUCUUCGAAUUCUGCUGU showed a self-cleavage of 0.145. Work on GGGGGCCACAGCAGACGCGUUCACGUCGCGGCCCCAGUCAGAUUCUGGUGAAUCUGCGAAUUCUGCUGU yielded a self-cleavage of 0.115. For GGGGGCCACAGCAGACGCGUUCACGUCGCGGCCCCGGUCAGAUUCUGGUGAAUCUGCGAAUUCUGCUGU, the self-cleavage was 0.108. Work on GGGGGCCACAGCAGACGCGUUCACGUCGCGGCCCCCGUCAGAUUCUGGUGAAUCUGCGAAUUCUGCUGU yielded a self-cleavage of 0.165. In the case of GGGGGCCACAGCAGACGCGUUCACGUCGCGGCCCCUGUCAGAUUCUGGUGAAUCUGCGAAUUCUGCUAU, the self-cleavage is reported as 0.61. For GGGGGCCACAGCAGACGCGUUCACGUCGCGGCCCCUGUCAGAUUCUGGUGAAUCUGCGAAUUCUGCUCU, the self-cleavage was 0.454. In the case of GGGGGCCACAGCAGACGCGUUCAGGUCGCGGCCCCUGUCAGAUUCUGGUGAAUCUGCGAAUUCUGCUGU, the self-cleavage is reported as 0.171. GGGGGCCACAGCAGACGCGUUCACGUCGCGGCCCCUGUCAGAUUCUGAUGAAUCUGCGAAUUCUGCUGU gave a self-cleavage of 0.328. In the case of GGGGGCCACAGCAGACGCGUUCACGUCGCGGCCCCUGUCAGAUUCUGUUGAAUCUGCGAAUUCUGCUGU, the self-cleavage is reported as 0.375. In the case of GGGGGCCACAGCAGACGCGUUCACGUCGAGGCCCCUGUCAGAUUCUGGUGAAUCUGCGAAUUCUGCUGU, the self-cleavage is reported as 0.186. With GGGGGCCACAGCAGACGCGUUCACGUCGGGGCCCCUGUCAGAUUCUGGUGAAUCUGCGAAUUCUGCUGU the self-cleavage was 0.165. GGGGGCCACAGCAGACGCGUUCACGUCGUGGCCCCUGUCAGAUUCUGGUGAAUCUGCGAAUUCUGCUGU gave a self-cleavage of 0.192. Variant GGGGGCCACAGCAGACGCGUUCACGUCGCGGCCCCUGUCAGAUUCUGGUGAAUCUGCGAAUUAUGCUGU has a self-cleavage of 0.173. For GGGGGCCACAGCAGACGCGUUCACGUCGCGGCCCCUGUCAGAUUCUGGUGAAUCUGCGAAUUGUGCUGU, the self-cleavage was 0.12. GGGGGCCACAGCAGACGCGUUCACGUCGCGGCCCCUGUCAGAUUCUGGUGAAUCUGCGAAUUUUGCUGU gave a self-cleavage of 0.19. Variant GGGGGCCACAGCAGACGCGUUCACGUCGCGGCCCCUGUCAGAUUCUGGUCAAUCUGCGAAUUCUGCUGU has a self-cleavage of 0.301. GGGGGCCACAGCAGACGGGUUCACGUCGCGGCCCCUGUCAGAUUCUGGUGAAUCUGCGAAUUCUGCUGU showed a self-cleavage of 0.114. In the case of GGGGGCCACAGCAGACGAGUUCACGUCGCGGCCCCUGUCAGAUUCUGGUGAAUCUGCGAAUUCUGCUGU, the self-cleavage is reported as 0.129. Work on GGGGGCCACAGCAGACCCGUUCACGUCGCGGCCCCUGUCAGAUUCUGGUGAAUCUGCGAAUUCUGCUGU yielded a self-cleavage of 0.0992. Work on GGGGGCCACAGCAGACUCGUUCACGUCGCGGCCCCUGUCAGAUUCUGGUGAAUCUGCGAAUUCUGCUGU yielded a self-cleavage of 0.127. GGGGGCCACAGCAGACACGUUCACGUCGCGGCCCCUGUCAGAUUCUGGUGAAUCUGCGAAUUCUGCUGU gave a self-cleavage of 0.144. GGGGGCCACAGCAGACGCGUUCACGUCGCGGCCCCUGUCAGAAUCUGGUGAAUCUGCGAAUUCUGCUGU gave a self-cleavage of 0.118. Work on GGGGGCCACAGCAGACGCGUUCACGUCGCGGCCCCUGACAGAUUCUGGUGAAUCUGCGAAUUCUGCUGU yielded a self-cleavage of 0.269. GGGGGCCACAGCAGACGCGUUCACGUCGCGGCCCCUGCCAGAUUCUGGUGAAUCUGCGAAUUCUGCUGU gave a self-cleavage of 0.137. With GGGGGCCACAGCAGACGCGUUCACGUCGCGGCCCCUGGCAGAUUCUGGUGAAUCUGCGAAUUCUGCUGU the self-cleavage was 0.15. In the case of GGGGGCCACAGCAGACGCGUUCACGUCGCGGCCCCUCUCAGAUUCUGGUGAAUCUGCGAAUUCUGCUGU, the self-cleavage is reported as 0.176. With GGGGGCCACAGCAGACGCGUUCACGUCGCGGCCCCUAUCAGAUUCUGGUGAAUCUGCGAAUUCUGCUGU the self-cleavage was 0.0923. GGGGGCCACAGCAGACGCGUUCACGUCGCGGCCCCUUUCAGAUUCUGGUGAAUCUGCGAAUUCUGCUGU gave a self-cleavage of 0.0859. GGGGGCCACAGCAGACGCGUUCACGUCGCGGCCCCUGUCAGAUUCUGGUGAAUCUGCGAAUUCUGAUGU gave a self-cleavage of 0.18. For GGGGGCCACAGCAGACGCGUUCACGUCGCGGCCCCUGUCAGAUUCUGGUGAAUCUGCGAAUUCUGGUGU, the self-cleavage was 0.198. GGGGGCCACAGCAGACGCGUUAACGUCGCGGCCCCUGUCAGAUUCUGGUGAAUCUGCGAAUUCUGCUGU gave a self-cleavage of 0.105. With GGGGGCCACAGCAGACGCGUUGACGUCGCGGCCCCUGUCAGAUUCUGGUGAAUCUGCGAAUUCUGCUGU the self-cleavage was 0.0967. In the case of GGGGGCCACAGCAGACGCGUUCACGUCGCGGUCCCUGUCAGAUUCUGGUGAAUCUGCGAAUUCUGCUGU, the self-cleavage is reported as 0.299. GGGGGCCACAGCAGACGCGUUCACGUCGCGGGCCCUGUCAGAUUCUGGUGAAUCUGCGAAUUCUGCUGU gave a self-cleavage of 0.136. Variant GGGGGCCACAGCAGACGCGUUCACGUAGCGGCCCCUGUCAGAUUCUGGUGAAUCUGCGAAUUCUGCUGU has a self-cleavage of 0.114. With GGGGGCCACAGCAGACGCGUUCACGUGGCGGCCCCUGUCAGAUUCUGGUGAAUCUGCGAAUUCUGCUGU the self-cleavage was 0.122. For GGGGGCCACAGCAGACGCGUUCACGUUGCGGCCCCUGUCAGAUUCUGGUGAAUCUGCGAAUUCUGCUGU, the self-cleavage was 0.15.
